Assay results as given in patent US11124558B2, “Use of tetranectin and peptide agonists to treat inflammatory diseases” (The Feinstein Institutes for Medical Research, priority 2017, dated 2021).
Where two headings read alike, the source gives them in different places.

Legend:
[1] = test system: GRO/CXCL1 and ENA-78/CXCL5 secretion, HuPBMCs; test: Cytokine/chemokine secretion by HuPBMCs (Cytokine Antibody Arrays); type: cell-based; details: primary human monocytes / HuPBMCs, TN 20 μg/ml, 16 h
Experimental: Human blood was purchased from the Long Island Blood Bank, and HuPBMCs were isolated by density gradient centrifugation through Ficoll, and stimulated with recombinant TN (20 μg/ml) expressed in HEK293 or E. coli for 16 h. The extracellular levels of cytokines and chemokines were determined by Cytokine Antibody Arrays.
In light of the protective roles of these neutrophil-attracting chemokines, CXCL1/KC [67,68] and CXCL5/ENA-78 [69,70] in LSI, it is important to determine whether TN could modulate leukocyte infiltration to facilitate potential pathogen elimination during sepsis.

[2] = test system: lethal endotoxemia, Balb/C mice; test: Lethal endotoxemia (LPS) survival in mice; type: in vivo; details: LPS 5 mg/kg i.p., male Balb/C mice, TN given i.p., survival monitored more than two weeks
Experimental: (§1) FIG. 6A-6C: Recombinant TN protected mice against lethal endotoxemia and sepsis. Male Balb/C mice were subjected to lethal endotoxemia (LPS, 5 mg/kg, i.p., Panel A) or sepsis by cecal ligation and puncture (CLP, Panel B, C), and recombinant TN produced in HEK293 (Panel A, B) or E. coli (Panel C) was given intraperitoneally at indicated dosing regimens. Animal survival rates were monitored for more than two weeks to ensure no later death. Shown in Panel B and C is a summary of two independent experiments with similar results.
(§2) Effects of TN or peptide agonist on LSI. Balb/C mice (both male and female, 7-8 weeks, 20-25 g) are subjected to lethal endotoxemia or sepsis as described above, and the recombinant TN is injected (i.p.) at various doses and time points (2, 24, and 48 h) after the onset of endotoxemia or sepsis. Their effects on the outcomes of LSI is assessed by comparing the long-term (two-week) survival rates between the TN-treated groups with saline vehicle-treated controls. By varying the time points (e.g., 2, 12, 24 or 36 h) when the first dose of TN will be given to animals, the therapeutic windows for the TN-based therapy is estimated. […] It will be critical to continue these exciting experiments using other dosing regimens to further validate TN's protective role in LSI.
Effects of TN or peptide agonist supplementation on LSI. Balb/C mice (both male and female, 7-8 weeks, 20-25 g) are subjected to lethal endotoxemia or sepsis as described above, and the recombinant TN will be injected (i.p.) at various doses and time points (2, 24, and 48 h) after the onset of endotoxemia or sepsis. Their effects on the outcomes of LSI will be assessed by comparing the long-term (two-week) survival rates between the TN-treated groups with saline vehicle-treated controls. By varying the time points (e.g., 2, 12, 24 or 36 h) when the first dose of TN will be given to animals, the therapeutic windows for the TN-based therapy will be estimated.

[3] = test system: lethal sepsis (CLP), Balb/C mice; test: Lethal sepsis by cecal ligation and puncture (CLP), survival in mice; type: in vivo; details: male Balb/C mice, given intraperitoneally, survival monitored more than two weeks
Experimental: as §1
(§3) FIG. 9: N-terminal deletion TN mutant protected mice against lethal sepsis. Male Balb/C mice were subjected to lethal sepsis by cecal ligation and puncture (CLP), and recombinant deletion mutant (ΔTN) was given intrapeitoneally at indicated dosing regimens. Animal survival rates were monitored for more than two weeks to ensure no later death. Shown was a summary of two independent experiments with similar results.
as §3, with “10:” for “9: N-terminal deletion”, “peptide agonist (P11)” for “mutant”, “TN peptide agonist, (P11, […]) (SEQ ID NO:11)” for “recombinant deletion mutant (ΔTN)”, “N=8-18 animals per group.” for “similar results.”
FIG. 13A-13B: Tetranectin peptide agonists (P2 and P2-M/Nle) protected mice against lethal sepsis. Male Balb/C mice were subjected to lethal sepsis by cecal ligation and puncture (CLP), and TN peptide agonist, P2 (55-KVHMKCFLAFTQTKTF-70) (13A) (SEQ ID NO:2) or P2-M/Nle (54-TKVH(Nle)KSFLAFTQTKT-69) (13B) (SEQ ID NO:13) was given intraperitoneally at indicated dosing regimens. Animal survival rates were monitored for more than two weeks to ensure no later death. Shown was a summary of independent experiment with N=10 animals per group. The Kaplan-Meier method was used to compare the difference in mortality rates between groups. *, P<0.05 versus “CLP+Vehicle” group.
as §2
To explore the therapeutic potential of the TN-based strategies, the efficacy of TN-specific peptide agonists that would recapitulate the HMGB1-inhibiting capacities is tested using both animal models of lethal endotoxemia and sepsis. A series of peptide agonists have been designed, and chemically synthesized or biologically expressed as recombinant peptide (Table 1, FIG. 7). Peptide agonists will be given to the endotoxemic or septic mice intraperitoneally at various doses and time points after the onset of endotoxemia or sepsis. Their effects on the outcomes of LSI is assessed by comparing the long-term (two-week) survival rates between the peptide agonist groups and the saline vehicle-treated controls.
TN-specific peptide agonists are tested that would recapitulate the HMGB1-inhibiting capacities using both animal models of lethal endotoxemia and sepsis. Peptide agonists are given to the endotoxemic or septic mice intraperitoneally at various doses and time points after the onset of endotoxemia or sepsis. […]

[4] = test system: circulating D-dimer, endotoxemic Balb/C mice; test: Plasma D-dimer level in endotoxemic mice (ELISA); type: in vivo; details: 24 h post endotoxemia
Experimental: Venous blood was obtained from normal healthy and endotoxemic, Balb/C mice at 24 h post endotoxemia in the absence or presence of recombinant TN. The plasma level of fibrin degradation product (FDP's, e.g., D-dimer) was measured using commercial ELISA kit (Cat. No. EKU03631, Biomatik) as per the manufacturers' instructions. *, P<0.05 as compared to the positive control (+LPS alone).
In light of HMGB1's key role in the platelet activation/aggregation and its possible interaction with TN protein, the impact of TN or TN-specific peptide agonists on the pro-fibrinolytic activities is evaluated by measuring the plasma level of fibrin degradation products (FDP's, e.g., D-dimer) using commercial ELISA kits (Cat. No. EKU03631, Biomatik) as per the manufacturers' instructions. A parallel elevation of D-dimer levels is indicative of a possible acceleration of the fibrinolysis cascade by the TN treatment. However, a decrease in the D-dimer concentration is indicative of a reduction of either the plasmin-mediated fibrinolysis or the thrombin-mediated coagulation. […] Given the complex roles of fibrinolysis in sepsis, therapeutic agents that could control coagulation/fibrinolysis balance, while maintaining the host defense at the infectious foci, can be useful for understanding the complex pathogenesis of lethal systemic inflammatory diseases.

[5] = target: plasminogen (PLMG) (Homo sapiens, UniProt P00747); details: cited from earlier work
Sequence of plasminogen (PLMG) (P00747 20-810 limits assumed): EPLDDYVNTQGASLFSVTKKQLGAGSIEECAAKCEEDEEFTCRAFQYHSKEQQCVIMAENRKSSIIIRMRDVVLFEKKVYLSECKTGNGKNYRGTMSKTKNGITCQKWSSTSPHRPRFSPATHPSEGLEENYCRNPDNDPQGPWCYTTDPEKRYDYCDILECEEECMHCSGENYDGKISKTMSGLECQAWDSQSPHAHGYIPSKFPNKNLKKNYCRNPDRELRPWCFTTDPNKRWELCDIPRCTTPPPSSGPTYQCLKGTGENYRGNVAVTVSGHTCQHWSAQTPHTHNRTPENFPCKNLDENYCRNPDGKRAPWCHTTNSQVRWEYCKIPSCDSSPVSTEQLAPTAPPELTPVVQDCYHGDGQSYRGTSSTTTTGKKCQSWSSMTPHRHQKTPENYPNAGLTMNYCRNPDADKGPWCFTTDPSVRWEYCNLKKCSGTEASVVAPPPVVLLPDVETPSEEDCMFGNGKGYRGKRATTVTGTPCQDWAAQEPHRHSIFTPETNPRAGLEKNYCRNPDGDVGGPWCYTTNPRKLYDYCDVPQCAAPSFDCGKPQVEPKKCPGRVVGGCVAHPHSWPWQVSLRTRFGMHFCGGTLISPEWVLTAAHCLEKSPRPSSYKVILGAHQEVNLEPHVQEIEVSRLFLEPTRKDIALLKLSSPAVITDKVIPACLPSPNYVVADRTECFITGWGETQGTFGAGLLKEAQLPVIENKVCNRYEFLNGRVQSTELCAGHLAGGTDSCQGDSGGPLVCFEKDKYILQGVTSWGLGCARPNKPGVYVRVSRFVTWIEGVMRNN

B1: tetranectin (protein, listed as Homo sapiens)
chain: EPPTQKPKKIVNAKKDVVNTKMFEELKSRLDTLAQEVALLKEQQALQTVCLKGTKVHMKCFLAFTQTKTFHEASEDCISRGGTLGTPQTGSENDALYEYLRQSVGNEAEIWLGLNDMAAEGTWVDMTGARIAYKNWETEITAQPDGGKTENCAVLSGAANGKWFDKRCRDQLPYICQFGIV
With B1 the “release of neutrophil-attracting chemokines (CXCL1/GRO-α/KC and CXCL5/ENA-78)” value (shortened to “release … (CXCL1/GRO-α/KC and CXCL5/ENA-78)”) [1] was “induced the release”, the “release … (CXCL1/GRO-α/KC and CXCL5/ENA-78)” value ([1]; listed as Recombinant TN) was “specifically induced” and the “release … (CXCL1/GRO-α/KC and CXCL5/ENA-78)” value ([1]; listed as recombinant TN) was “specifically stimulated”. For the same molecule, the “protection against lethal endotoxemia (animal survival)” value (“protection against lethal endotoxemia” for short) [2] was “significant protection”, the “protection against lethal endotoxemia” value ([2]; listed as Recombinant TN) was “protected” and the “protection against lethal endotoxemia” value ([2]; listed as recombinant TN) was “significant protection”. For the same molecule, the “protection against lethal sepsis (animal survival)” value (from here on “protection against lethal sepsis”) [3] was “significant protection”, the “protection against lethal sepsis” value ([3]; listed as Recombinant TN) was “protected” and the “protection against lethal sepsis” value ([3]; listed as recombinant TN) was “significant protection”. The “effect on endotoxin-induced elevation of circulating D-dimer levels” value ([4]; P<0.05 vs +LPS alone) was “significantly attenuated”, the “reduction of plasma D-dimer levels” value ([4]; at doses that conferred significant protection) was 40-50% and the Kd ([5]; ref [57], read-out: Kd of calcium-sensitive TN-PLMG interaction) was 500 nM. The Kd ([5]; ref [74], read-out: Kd of TN-PLMG interaction) was 500 nM.
